Laboratory results from doi:10.1101/2021.02.07.430097.

Target: Ape4 (full length) of the Ape4-Nbr1 fusion protein (S. pombe)
Experiment: cryo-EM structure

stoichiometry N	stoichiometry N (Nbr1-ZZ1 molecules per Ape4 dodecamer)	Molecule
12	–	Ape4 (full length) of the Ape4-Nbr1 fusion protein (enzyme)
–	12	Nbr1(53-129) of the Ape4-Nbr1 fusion protein (domain or fragment) PTLRSSSVACNTCLKIIRNDSFHCTKCFDFDVCRDCYAKQAFLHPCPKPHFVLVRSSIPSVASLTCSVNSMSVSPQS
